According to publication PMC3155514, “Subunit Interface Residues F129 and H294 of Human RAD51 Are Essential for Recombinase Function”:

How the values were obtained:
[1] = biological target: T1, HsRAD51 wild type (Homo sapiens, UniProt Q06609 1-339); experiment: SPR; ATP (2.5 mM); SPR (Biacore 3000): 20 mM HEPES pH 7.5, 10% glycerol, 1 mM DTT, 1 mM MgCl2, 0.005% P-20, 2.5 mM indicated nucleotide, 150 mM KCl when indicated (text: salt similar to strand exchange), 25 C, 100 nM-1.6 uM protein; conditions: protein: recombinant
T1 sequence (Q06609 whole entry): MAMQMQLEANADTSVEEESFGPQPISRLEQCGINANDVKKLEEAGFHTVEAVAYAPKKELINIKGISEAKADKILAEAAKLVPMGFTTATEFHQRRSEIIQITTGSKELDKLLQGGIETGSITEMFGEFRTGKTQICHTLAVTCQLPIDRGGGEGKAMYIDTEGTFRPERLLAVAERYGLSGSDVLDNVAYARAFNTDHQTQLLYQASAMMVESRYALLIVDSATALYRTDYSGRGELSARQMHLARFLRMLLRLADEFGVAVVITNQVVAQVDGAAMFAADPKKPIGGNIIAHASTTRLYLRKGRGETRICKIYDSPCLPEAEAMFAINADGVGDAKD

[2] = biological target: T2, HsRAD51(F129V) (Homo sapiens, UniProt Q06609 1-339, F129V); experiment: SPR; ADP (2.5 mM); SPR (Biacore 3000): 20 mM HEPES pH 7.5, 10% glycerol, 1 mM DTT, 1 mM MgCl2, 0.005% P-20, 2.5 mM indicated nucleotide, 150 mM KCl when indicated (text: salt similar to strand exchange), 25 C, 100 nM-1.6 uM protein; conditions: protein: recombinant; chain copies: 16; label: 5' biotin on strand 1; blunt
T2 sequence (Q06609 whole entry F129V): as the sequence (Q06609 whole entry) above, with F129V counted along it

[3] = biological target: T1, HsRAD51 wild type; experiment: SPR; no nucleotide; SPR (Biacore 3000): 20 mM HEPES pH 7.5, 10% glycerol, 1 mM DTT, 1 mM MgCl2, 0.005% P-20, 2.5 mM indicated nucleotide, 150 mM KCl when indicated (text: salt similar to strand exchange), 25 C, 100 nM-1.6 uM protein; conditions: protein: recombinant
[4] = biological target: T1, HsRAD51 wild type; experiment: SPR; ADP (2.5 mM); SPR (Biacore 3000): 20 mM HEPES pH 7.5, 10% glycerol, 1 mM DTT, 1 mM MgCl2, 0.005% P-20, 2.5 mM indicated nucleotide, 150 mM KCl when indicated (text: salt similar to strand exchange), 25 C, 100 nM-1.6 uM protein; conditions: protein: recombinant; chain copies: 10; label: 5' biotin; single strand
[5] = biological target: T3, HsRAD51(H294V) (Homo sapiens, UniProt Q06609 1-339, H294V); experiment: SPR; no nucleotide; SPR (Biacore 3000): 20 mM HEPES pH 7.5, 10% glycerol, 1 mM DTT, 1 mM MgCl2, 0.005% P-20, 2.5 mM indicated nucleotide, 150 mM KCl when indicated (text: salt similar to strand exchange), 25 C, 100 nM-1.6 uM protein; conditions: protein: recombinant; chain copies: 10; label: 5' biotin; single strand
T3 sequence (Q06609 whole entry H294V): as the sequence (Q06609 whole entry) above, with H294V counted along it

[6] = biological target: T2, HsRAD51(F129V); experiment: SPR; ADP (2.5 mM); rapid dissociation; SPR (Biacore 3000): 20 mM HEPES pH 7.5, 10% glycerol, 1 mM DTT, 1 mM MgCl2, 0.005% P-20, 2.5 mM indicated nucleotide, 150 mM KCl when indicated (text: salt similar to strand exchange), 25 C, 100 nM-1.6 uM protein; conditions: protein: recombinant; chain copies: 10; label: 5' biotin; single strand
[7] = biological target: T3, HsRAD51(H294V); experiment: as above; conditions: protein: recombinant; chain copies: 10; label: 5' biotin; single strand
[8] = chain copies: 16, label: 5' biotin on strand 1, blunt
[9] = chain copies: 10, label: 5' biotin, single strand

Row | Binder | Kd [1, 8] | Kd [2] | Kd [3, 8] | Kd [1, 9] | Kd [4] | Kd [3, 9] | Kd [5] | Kd [6] | Kd [7]
1 | 50 bp dsDNA (dsDNA) DNA 1: TCGAGAGGGTAAACCACAATTATTGATATAAAATAGTTTTGGGTAGGCGA DNA 2: TCGCCTACCCAAAACTATTTTATATCAATAATTGTGGTTTACCCTCTCGA | 262 nM | 446 nM | 264 nM | – | – | – | – | – | –
2 | TTTTTTTTTTTTTTTTTTTTTTTTTTTTTTTTTTTTTTTTTTTTTTTTTT (ssDNA) [dT50] | – | – | – | 90 nM | 20 nM | 15 nM | 28 nM | 54 nM | 43 nM
